B1: 1A4 (antibody, V domains shown)
VH: QSLEESGGDLVKPGASLTLTCTASELDFYWICWVRQAPGKGLEWIACIGAGSSGSTYYASWAKGRFTVSKTSSTTVTLQMTSLTAADTATYFCARTGTEFTYYSLWGPGTLVTVSS
VL: ALVMTQTPSSVSAAVGGTVTINCQASQSVYNNNMAWYQQKPGQPPKLLIYTASSLASGVPSHFRGSGSGTQFTLTISDLESDDAATYYCAGYKSYSNDEYGFGGGTEVVVK
notes: which format stood in each assay is not always stated; also called CCL2-0008
B2: 2F6 (antibody, IgG1, V domains shown)
VH: QSLEESGGGLVQPEGSLTLTCTASGFSFNNNYYMCWVRQAPGKGLEWIGCISTDDSNTHYASWAQGRFTISKASSTALTLQVAGLTVADMATYFCARDAHFTSYGYGFDLWGPGTLVTVSS
VL: DIVMTQTPASVSAAVGGTVSINCRASEDIENLVAWYQQKPGQPPKLLIYQASKLASGVPSRFKGSGSGAEFTLTIGDLESADAATYYCQGDYGSGWIMYSFGGGTDLVVK
notes: also called CCL2-0014
B3: murine 11K2 (antibody, V domains shown)
VH: EVQLQQSGAELVKAGASVKLSCPASGLNIKDTYMHWVKQRPEQGLEWIGRIDPANGNTKFDPKFQGKATITADTSSNTAYLQLSSLTSEDTAVYYCARGVFGFFDYWGQGTTLTVSS
VL: DIQMTQSSSSFSVSLGDRVTITCKATEDIYNRLAWYQQKPGSAPRLLISGATSLETGVPSRFSGSGSGKDYTLSITSLQTEDVATYYCQQFWSAPYTFGGGTKLEIK
notes: also called 11K2m; X-0048
B4: 1A5//2F6-PGLALA (bispecific antibody, V domains shown)
VH 1: QEQLVESGGDLVKPEGSLTLTCTASGFSFSTSYWMCWVRQAPGKGLELIACISSSIGVTYYASWAEGRFTISKTSSTTVTLQMTSLTVADTATYFCARTTDDNWNVGFNLWGPGTLVTVSS
VL 1: AYDMTQTPASVEVGVGGTVTIKCQASQSIGNRYLSWYQQKPGQPPKLLIYGTSTLASGVSSRFKGSGSGTQFTLTISGVESADSATYYCQQGATISYLDNAFGGGTEVVVK
VH 2: B2 VH
VL 2: B2 VL
notes: CrossMab, IgG1 with L234A, L235A, P329G, knobs-into-holes; crossed arm 1A5, non-crossed arm 2F6; also called CCL2-0055; P1AA3402
B5: 11K2//2F6-WT IgG1 (bispecific antibody, V domains shown)
VH 1: QVQLVQSGAEVKKPGSSVKVSCKASGLTISDTYMHWVRQAPGQGLEWMGRIDPANGNTKFDPKFQGRVTITADTSTSTAYMELSSLRSEDTAVYYCARGVFGFFDYWGQGTTVTVSS
VL 1: DIQMTQSPSSLSASVGDRVTITCKATEDIYNRLAWYQQKPGKAPKLLISGATSLETGVPSRFSGSGSGTDYTLTISSLQPEDFATYYCQQFWSAPYTFGGGTKVEIK
VH 2: B2 VH
VL 2: B2 VL
notes: CrossMab, wild type IgG1 with knobs-into-holes; crossed arm humanized 11K2, non-crossed arm 2F6; also called CCL2-0056; P1AA3392
B6: 1A5//2F6-WT IgG1 (bispecific antibody, V domains shown)
VH 1: B4 VH 1
VL 1: B4 VL 1
VH 2: B2 VH
VL 2: B2 VL
notes: CrossMab, wild type IgG1 with knobs-into-holes; crossed arm 1A5, non-crossed arm 2F6; also called CCL2-0058; P1AA3427
B7: ABN912//11K2-PGLALA (bispecific antibody, V domains shown)
VH 1: B5 VH 1
VL 1: B5 VL 1
VH 2: EVQLVQSGGGLVQPGGSLRLSCAASGFTFSHYWMSWVRQAPGKGLEWLANIEQDGSEKYYVDSVKGRFTISRDNAKNSLYLQMNSLRAEDTAVYFCARDLEGLHGDGYFDLWGRGTLVTVSS
VL 2: AIQLTQSPSSLSASVGDRVILTCRASQGVSSALAWYQQKPGKAPKLLIYDASSLESGVPSRFSGSGSGPDFTLTISSLQPEDFATYFCQQFNSYPLTFGGGTKVEIK
notes: CrossMab, IgG1 with L234A, L235A, P329G, knobs-into-holes; VH/VL-crossed arm humanized 11K2, non-crossed arm ABN912; also called CCL2-0041; P1AA3411
B8: 11K2//1G9-PGLALA (bispecific antibody, V domains shown)
VH 1: B5 VH 1
VL 1: B5 VL 1
VH 2: QSLEESGGDLVKPGASLTLTCKASGIDFSLYSYMCWVRQAPGKGLEWIACVDAGASGSTYYASWAKGRFTISKTSSTTVTLQMTSLTAADTATYFCARGILYYTWPYPAGAIDAFDSWGPGTLVTVSS
VL 2: AYDMTQTPASVSEPVGGTVTIKCQASESISNYLSWYQQKPGQPPKLLIYKASTLASGVPSRFKGSGSGTEYTVTISGVQSDDAATYYCQQSYSSSNVFNTFGGGTEVVVK
notes: CrossMab, IgG1 with L234A, L235A, P329G, knobs-into-holes; crossed arm humanized 11K2, non-crossed arm 1G9; also called CCL2-0043; P1AA3463
B9: CKLO2-IgG1 (bispecific antibody)
heavy 1: not shown
heavy 2: not shown
light 1: QVQLVQSGAEVKKPGSSVKVSCKASGLTISHTYMHWVRQAPGQGLEWMGRIDPDNHNTKFDPKFQGRVTITADTSTSTAYMELSSLRSEDTAVYYCARGVFGFFEHWGQGTTVTVSSASVAAPSVFIFPPSDEQLKSGTASVVCLLNNFYPREAKVQWKVDNALQSGNSQESVTEQDSKDSTYSLSSTLTLSKADYEKHKVYACEVTHQGLSSPVTKSFNRGEC
light 2: EIVLTQSPATLSLSPGERATLSCRASQHVSDAYLAWYQQKPGQAPRLLIYDASDRAEGVPARFSGSGSGTDFTLTISSLEPEDFAVYYCHQYIHLHSFTFGQGTKVEIKRTVAAPSVFIFPPSDRKLKSGTASVVCLLNNFYPREAKVQWKVDNALQSGNSQESVTEQDSKDSTYSLSSTLTLSKADYEKHKVYACEVTHQGLSSPVTKSFNRGEC
B10: CKLO2-GG01 (=P1AF8137) (bispecific antibody)
heavy 1: DIQMTQSPSSLSASVGDRVTITCKAFEDIYNRRAWYQQKPGKAPKLLIHGATSLEHGVPSRFSGSGSGTDYTLTISSLQPEDFATYYCQQFWSAPYTFGGGTKVEIKSSASTKGPSVFPLAPSSKSTSGGTAALGCLVKDYFPEPVTVSWNSGALTSGVHTFPAVLQSSGLYSLSSVVTVPSSSLGTQTYICNVNHKPSNTKVDKKVEPKSCDKTHTCPPCPAPEYLGGDSVFLFPPKPKDVLMISRTPEVTCVVIDVSHEDPEVKFNWYVDGVEVHNAKTKPREEQYNSTYRVVSVLPVLHRDWLNGKEYKCKVSNKALPKPIEKTISKAKGQRREPQVYTLPPCRDELTKNQVSLWCLVKGFYPSDIAVEWESNGQPENNYKTTPPVLDSDGSFFLYSKLTVDKSRWQQGNVFSCSVMHEALHAHYTRKELSLSP
heavy 2: not shown
light 1: B9 light 1
light 2: B9 light 2

Target: T1, human CCL2 (MCP1) - wild type (wt) (human, UniProt P13500 24-99)
Assay: cell-based or functional assay

THP1 chemotaxis [fold change compared to IgG control] | Binder
4.5 fold | B1
6.7 fold | B2
6.9 fold | B3

Target: T2, human CCL2 (MCP1) - P8A variant (human, UniProt P13500 24-99)
T2 construct: In-house point mutant that cannot dimerise; also called monomeric human CCL2; monomeric CCL2
Assay: SPR T200, 37 C, antibody captured, 1:1 model
Procedure: (§1) Antibody clone supernatants were diluted 1:2 in system buffer and were captured for 1 min at 5 μl/min. […] Analyte kinetics were performed at 30 μl/min. As analyte in solution wt human CCL2 or monomeric CCL2 P8A variant CCL2 were used. Analytes were injected at 90 nM highest concentration. The analyte contact time was 3 min and the dissociation time was 10 min. The Biaevaluation software V.3.0 was used according to the instructions of the manufacturer GEHC. A 1:1 binding model with RMAX local was applied to apparently estimate kinetic rates.

Kd | T1/2 | Binder
59 pM | 2.9 h | B1
91 pM | 0.783 h | B2
11 pM | 8.63 h | B3

Target: T1, human CCL2 (MCP1) - wild type (wt)
Assay: SPR T200, 37 C, antibody captured, 1:1 model
Procedure: as §1

Kd | T1/2 | Binder
73 pM | 1.67 h | B1
59 pM | 0.867 h | B2
350 pM | 0.317 h | B3

Target: T1, human CCL2 (MCP1) - wild type (wt)
Assay: SPR, C1 chip, anti-human Fc capture, 25 C, pH 7.4, Langmuir 1:1
Procedure: The sample and system buffer was PBS-T (10 mM phosphate buffered saline including 0.05% Tween20) pH 7.4. The flow cell was set to 25° C.—and the sample block set to 12° C.—and primed with running buffer twice. The bispecific antibody was captured by injecting a 2 μg/ml solution for 60 see at a flow rate of 10 μl/min. Association was measured by injection of human CCL2 (wt) in various concentrations in solution for 150 see at a flow rate of 30 μl/min starting with 30 nM in 1:10 dilutions. The dissociation phase was monitored for up to 1200 sec and triggered by switching from the sample solution to running buffer. […] Bulk refractive index differences were corrected by subtracting the response obtained from a goat anti human IgG Fc surface. Blank injections are also subtracted (=double referencing). For calculation of kinetic parameters, the Langmuir 1:1 model was used.

binding result | Binder
binds | B4
binds | B5
binds | B6
binds | B7
binds | B8

Target: T1, human CCL2 (MCP1) - wild type (wt)
Assay: cell-based or functional assay
Remark: another data set of the same source

IC50, inhibition of THP-1 migration (chemotaxis assay) | Binder
0.2 µg/mL | B9
0.2 µg/mL | B10

Source: patent publication US20240360208A1 (Hoffmann-La Roche, published 2024)
